This passage reports other: Protein ratio results from article PMC10625565.

This assay has as its target GST-PpROP4CA (G15V). The assay can be described thus: pull-down (MBP pull-down, anti-GST western blot, band quantification). The conditions noted are these: three replicates; parent: est. 0.17; read off a plot.

As to MBP-PpREN (wild type) R204L, the other: Protein ratio turned out to be 0.17.
